The values that follow come from patent US20220275059A1 (HARBOUR ANTIBODIES, published 2022).

Residue numbers refer to the chain shown, from its start. Several values for one entry are separate records, joined by “and”; a condition that tells them apart may be missing. Identical values can stand only once.

In test [1] the target is T1, MERS-CoV S S1 subunit (MERS-S1) (MERS-CoV EMC isolate, UniProt K9N5Q8 19-748). Briefly: ForteBio Octet kinetic measurement (FIG. 3A). (In BLI a coated tip is dipped into the sample, and binding shifts an interference pattern.)
In test [2] the target is T2, MERS-S on pseudotyped VSV particles (MERS-S carrying a 16-a.a. cytoplasmic tail truncation) (MERS-CoV, UniProt K9N5Q8 18-1337). Briefly: cell-based or functional assay.
In test [3] the target is T1, MERS-CoV S S1 subunit (MERS-S1). Description: ELISA on coated MERS-S1, OD450 [D]. A general note: An ELISA detects its analyte on a solid surface through an enzyme-linked reagent.
Test [4] concerns the target MERS-S1^B domain (receptor binding domain) (MERS-CoV EMC isolate, UniProt K9N5Q8 358-588). Description: ELISA on coated MERS-S1^B, OD450 [D].
Test [5] concerns the target T2, MERS-S on pseudotyped VSV particles …. Description: cell-based or functional assay. The source holds these as a separate data set.
For the next test, the target named is T3, MERS-S1^A domain (MERS-CoV EMC isolate, UniProt K9N5Q8 19-357).
T3 sequence: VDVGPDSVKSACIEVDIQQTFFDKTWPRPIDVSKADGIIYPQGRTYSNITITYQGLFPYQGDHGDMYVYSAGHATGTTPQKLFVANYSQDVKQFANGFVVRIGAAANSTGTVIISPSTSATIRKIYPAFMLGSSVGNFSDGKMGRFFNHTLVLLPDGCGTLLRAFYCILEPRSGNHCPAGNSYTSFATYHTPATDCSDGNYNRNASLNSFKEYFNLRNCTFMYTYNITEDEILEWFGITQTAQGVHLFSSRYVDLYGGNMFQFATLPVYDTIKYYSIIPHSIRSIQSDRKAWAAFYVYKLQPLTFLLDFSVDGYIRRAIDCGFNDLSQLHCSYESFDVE
Briefly: ELISA on coated MERS-S1^A, OD450 [D].

The target in test [6] is T1, MERS-CoV S S1 subunit (MERS-S1). Description: ForteBio Octet / BLI (FIG. 2F and 3A).
Test [7] shares this target. Description: affinity measurement of HCAbs (method not told).
The target in a further test is SARS-CoV spike protein (SARS-CoV, UniProt P59594 15-1182). Description: ELISA on SARS Secto.
The target of the next test is peptide 11. Briefly: ELISA on coated overlapping MERS-S2 peptides, A450 [D00032 Fig. 14(B].
The next test addresses peptide 10. Described as above.
Test [8] deals with MERS-S2 ectodomain (MERS-S2^ecto) (MERS-CoV EMC isolate, UniProt K9N5Q8 752-1262).

B1: 7.7g6 (antibody, V domains shown)
VH: QVQLVQTGAEVKKPGSSVKVSCKASGGTFSIYAISWVRQAPRQGLEWMGGIIPIFGTANYAQKFQGRVTITADKSTNTAYMELSRLRSEDTAVYYCAREGDDVLVPTSRGFFDYWGQGTLVTVSS
VL: not shown
As usually defined, the Kd is the constant that tells how readily two partners part at equilibrium. High values mean weaker binding, low ones tighter binding. A word on the EC50 (read off the curve): it is the concentration at which the effect is half-maximal. Higher therefore signals lower potency in that assay. As to B1, the equilibrium dissociation constant (Kd) in test [1] was approximately 0.36 nM. Moreover, the “IC50, neutralisation of MERS-S VSV pseudovirus on Vero cells” value (shortened to “IC50, neutralisation”) in test [2] was 0.001 µg/ml and 0.007 nM. For the same molecule, the half-maximal effective concentration (EC50 (read off the curve)) in test [3] was approximately 0.02 µg/mL. In addition, the 50% effective concentration (EC50 (read off the curve)) in test [4] was approximately 0.02 µg/mL. In test [5], the “IC50, neutralization of MERS-S pseudovirus infectivity (H2L2)” value (shortened to “IC50, neutralization … (H2L2)”) is approximately 0.00011 µg/mL and the “IC50, neutralization of MERS-S pseudovirus infectivity (human IgG1)” value (from here on “IC50, neutralization … (human IgG1)”) was approximately 0.02 µg/mL. Moreover, the binding result in the test with MERS-S1^A domain is listed as “no binding (tested: about 5x10^5 ng/ml)”.

B2: 1.8e5 (antibody, V domains shown)
VH: QVQLQESGPGLVKPSGTLSLTCAVSGGSISSNRWWTWVRRSPGKGLEWIGEIYHSGSTNYNPSLKSRVTISVDRSKNQFSLKLSSVTAADTAVYYCASLTLIWFGEKAFDIWGQGTMVTVSS
VL: EIVMTQSPATLSVSPGERATLSCGASPSVSTNLAWYQQRPGQAPRLLIYGISTRAAGIPARFSGTGSGTEFTLTISSLQSEDFALYYCQQYNNWPYTFGQGTKLEIKR
On to B2, for which, in [6], the Kd is approximately 0.32 nM. Also, the “IC50, neutralisation” value in test [2] was 1.5 µg/mL. Moreover, in [5], the “IC50, MERS-S pseudovirus infection (human IgG1)” value came to 10 nM; the “IC50, neutralization … (H2L2)” value was approximately 0.0903 µg/mL; the “IC50, neutralization … (human IgG1)” value is approximately 2.59 µg/mL. In addition, the binding result with MERS-S1^A domain was “no binding (tested: about 5x10^5 ng/ml)”.

B3: 1H5 heavy chain-only antibody (antibody, V domains shown)
VH: EVQLVESGGGLVQPGGSLRLSCAASGFTFSSYWMLWVRQAPGEGLVWVSRIDSDGSNTTYADSVKGRFTVSRDNAKNTLYLQMNSLRAEDTAVYYCARSGYGYAFDIWGQGTMVTVSS
B3: the Kd in [7] was determined as 10.9 nM.

B4: 4.6e10 (antibody, V domains shown)
VH: QVQLVESGGGVVQPGRSLRLSCTASGFTFTYYGLHWVRQAPGKGLEWVAVIWYDGSNQYYADSVQGRFTISRDNSKNTLYLQMNSLRAEDTAVYYCAREGLGAVAGYYFDYWGQGTLVTVSA
VL: DIQMTQSPSSLSASVRDRVTITCRASQIISNYLNWYQQKPGKAPKLLIYAASSLQSGVPSRFSGSGSGTDFTLTISSLQPEDFATYFCQQSYSTPFAFGPGTKVDIKR
B4 had a Kd in test [6] of approximately 0.36 nM. Moreover, in test [2], the “IC50, neutralisation” value turned out to be 0.048 µg/mL. For the same molecule, in [5], the “IC50, MERS-S pseudovirus infection (human IgG1)” value was 0.32 nM; the “IC50, neutralization … (H2L2)” value is approximately 0.0313 µg/mL; the “IC50, neutralization … (human IgG1)” value is approximately 0.07 µg/mL. Besides, in the test with MERS-S1^A domain, the binding result was “no binding (tested: about 5x10^5 ng/ml)”.

B5: 1G3 heavy chain-only antibody (antibody, V domains shown)
VH: EVQLVESGGGVVQPGRSLRLSCAASGFTFSSYGMHWVRQAPGKGLEWVAVIWYDGSNKYYADSVKGRFTISRDNSKNTLYLQMNSLRAEDTAVYYCARDERIFGVPDAFDIRGQGTMVTVSS
In turn, B5 yielded a Kd in [7] of 21.7 nM.

B6: 1.17f10 (antibody, V domains shown)
VH: QVQLVESGGGVVQPGRSLRLSCAASGFTFSKYGMHWVRQAPGKGLEWVANIGYDGSDKYYADSVKGRFTISRDNSKNMLYLQMNSLRAEDTAVYFCARGGWIDDYYYGLDVWGQGTTVTVSS
VL: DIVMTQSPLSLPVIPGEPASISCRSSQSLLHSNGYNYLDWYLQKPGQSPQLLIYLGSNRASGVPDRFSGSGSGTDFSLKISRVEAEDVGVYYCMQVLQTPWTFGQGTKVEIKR
With B6, in the test with SARS-CoV spike protein, the binding result was “no binding (tested: 25.00 (no unit printed))”.

B7: 1.12g2 (antibody, V domains shown)
VH: B6 VH with K31S, N50V, G52C, A61T, K65R, M78T, A88V, V93M, L109M
VL: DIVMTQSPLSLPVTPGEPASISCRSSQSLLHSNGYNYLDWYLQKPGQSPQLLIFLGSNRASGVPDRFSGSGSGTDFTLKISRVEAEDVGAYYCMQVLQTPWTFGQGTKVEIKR
As to B7, in the test with SARS-CoV spike protein, the binding result is recorded as “no binding (tested: 25.00 (no unit printed))”.

B8: 1.5d6 (antibody, V domains shown)
VH: B6 VH with K31R, N50V, D57N, M78T, Y80S, F95Y, I102N
VL: DIVMTQSPLSLPVIPGEPASISCRSSQSLLHSNGYNYLDWYLQKPGQSPQLLIYLGSNRASGVPDRFSGSGSGTDFTLKISIVEAEDAGVYYCMQVLQTPWTFGQGTKVEIKR
Consider B8, for which the binding result with SARS-CoV spike protein is “no binding (tested: 25.00 (no unit printed))”.

B9: 1E10 heavy chain-only antibody (antibody, V domains shown)
VH: EVQLLESGGGWVQPGGSLRLSCAASGFTFSTNAMSWVRQAPGKGLEWVSGISGSGGSTDYADSVKGRFTISRDNSKNTLYLQMNSLRAEDTAVYYCAPRIAVAPDALDIWGQGTMVTVSS
Regarding B9, in test [7], binding was characterised by a dissociation constant (Kd) of 1 nM.

B10: 2.6h11 (antibody, V domains shown)
VH: EVQLVESGGGLVQPGRSLRLSCTASGFTFGDYVMSWFRQAPGKGLEWVGFIRSKAHGGTTEYAASVNGRFSISRDDSKTIAYLQMNSLKSEDTAVYYCTWLRNDYYYGMDVWGLGTTVTVSS
VL: B8 VL with V3M, I14T, S28R, N36S, L38V, N58D, I82R, A88V, V96T
On to B10, for which the binding result with SARS-CoV spike protein is listed as “no binding (tested: 25.00 (no unit printed))”; with peptide 11, “no binding”; in the test with peptide 10, “no binding”.

B11: 3.5g6 (antibody, V domains shown)
VH: QVQLQQSGPGLVKPSQTLSLTCAISGHSVSSNSADWNWIRQSPSRGLEWLGRTYCRSKCYNDYAVSVKSRITINPDTSKNQFSLQLNPVTPEDTAVYYCARSLGSGTYPFDSWGQGTLVTVSS
VL: DIQMTQSPSSLSASVGDRVTITCRASQRISRFLNWYQQTPGKAPKFLIYAASSLQSGVPSRFSGSGSGTDFTLTISSLQPEDFATYYCQQSYSTPLTFGGGTTVEIKR
Regarding B11, the “IC50, neutralisation” value in test [2] was 2.49 µg/mL. In addition, the binding result in [3] is listed as “no binding (tested: about 5x10^5 ng/ml)”; in the test with SARS-CoV spike protein, “no binding (tested: 25.00 (no unit printed))”; in [4], “no binding (tested: about 5x10^5 ng/ml)”; with MERS-S1^A domain, “no binding (tested: about 5x10^5 ng/ml)”. Also, the “IC50, MERS-S pseudovirus (human IgG1)” value in test [5] is 16.6 nM. In test [8], the “EC50 (read off the curve)” value is approximately 0.2 µg/mL.

B12: 1.2g5 (antibody, V domains shown)
VH: QVQLVQSGAEVKKPGSSVKVSCKASGGTFSTYAISWVRQAPGQGLEWMGGIIPIFGTANYAQKFQGRVTIIADKSTNTAYMDLSSLRSEDTAVYYCAREGNLGYDVVTGYSYFVYWGQGTLVTVSS
VL: EIVLTQSPGTLSLSPGERATLSCRASQSVSSSYLAWYQQKPDQVPRLLIYGTSSRATGIPDRFSGSGSGTDFTLTISRLEPEDFAVYYCQQYGRSLTFGGGTKVEIKR
The molecule B12 displayed a Kd in [1] of approximately 0.081 nM. Moreover, the “IC50, neutralisation” value in test [2] is 0.002 µg/ml and 0.013 nM. Also, in test [5], the “IC50, neutralization … (H2L2)” value was approximately 0.00062 µg/mL and the “IC50, neutralization … (human IgG1)” value was approximately 0.007 µg/mL. In addition, the binding result with MERS-S1^A domain is “no binding (tested: about 5x10^5 ng/ml)”.

B13: 1.13a9 (antibody, V domains shown)
VH: EVQLVESGGGLVQPGGSLRLSCAASGFTFSNYWMTWVRQAPGKGLEWVANIKEDGSEKYYVDSVKGRFTLSRDNAKNSLYLQMNSLRAEDTAVYYCAKEGALLWFGVLRPRAFDIWGQGTMVTVSS
VL: B8 VL with I14T, K44N, Q50H, G56A, I82R, E86A, A88V, V96A, W101Y, V109L
B13: in the test with SARS-CoV spike protein, the binding result is “no binding (tested: 25.00 (no unit printed))”.

B14: 1.10f3 (antibody, V domains shown)
VH: QVQLVESGGGVVQPGRSLRLSCKASGFTFRGYGMHWVRQAPGKGLEWVTVIWHDASNKYYVDSVKGRFSISRDNSKNTLYLQMNSLRAEDTAVYYCARDAGLSFDIWGQGTMVTVSS
VL: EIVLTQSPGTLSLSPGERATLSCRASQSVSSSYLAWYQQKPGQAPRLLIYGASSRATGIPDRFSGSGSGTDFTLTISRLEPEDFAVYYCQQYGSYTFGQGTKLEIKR
In test [1], B14 showed a Kd of approximately 4.8 nM. In addition, the “IC50, neutralisation” value in test [2] was > 10 µg/ml and > 66.7 nM. The results for the “EC50 (read off the curve)” value (in test [3]; with MERS-S1^A domain) were approximately 0.1 µg/mL and approximately 0.07 µg/mL, respectively. Also, the binding result in test [4] was “no binding (tested: about 5x10^5 ng/ml)”.
